Target: CX1 S ectodomain with stabilizing mutations
Test: AUC

peptidase domain (PD) of hACE2, sequence (Q9BYF1 19-615): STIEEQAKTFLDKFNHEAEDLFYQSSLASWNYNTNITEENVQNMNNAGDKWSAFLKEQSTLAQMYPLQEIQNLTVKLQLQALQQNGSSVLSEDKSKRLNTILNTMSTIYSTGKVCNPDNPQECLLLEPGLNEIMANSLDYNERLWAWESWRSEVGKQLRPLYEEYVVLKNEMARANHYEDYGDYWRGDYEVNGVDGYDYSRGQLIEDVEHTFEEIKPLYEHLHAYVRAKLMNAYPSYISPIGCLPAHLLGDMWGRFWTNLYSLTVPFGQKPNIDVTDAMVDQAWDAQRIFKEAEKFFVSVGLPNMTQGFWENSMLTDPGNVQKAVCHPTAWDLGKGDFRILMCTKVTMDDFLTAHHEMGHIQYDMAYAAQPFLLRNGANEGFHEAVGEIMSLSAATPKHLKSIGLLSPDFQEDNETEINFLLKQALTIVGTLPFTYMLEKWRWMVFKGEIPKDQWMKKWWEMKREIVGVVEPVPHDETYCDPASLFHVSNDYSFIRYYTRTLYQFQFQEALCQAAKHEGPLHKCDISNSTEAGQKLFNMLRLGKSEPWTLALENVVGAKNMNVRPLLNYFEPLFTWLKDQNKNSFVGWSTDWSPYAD

Substance: peptidase domain (PD) of hACE2 (from UniProt Q9BYF1 19-615) (domain or fragment)
- stoichiometry N (hACE2 molecules per S trimer): 2
